The text below walks through data of patent EP4289863A9 (Shanghai Huaota Biopharmaceutical Co., Ltd., dated 2024).

For assay [1], the target named is T1, human IL-36R (human, UniProt Q9HB29 20-575).
T1 sequence (looked up): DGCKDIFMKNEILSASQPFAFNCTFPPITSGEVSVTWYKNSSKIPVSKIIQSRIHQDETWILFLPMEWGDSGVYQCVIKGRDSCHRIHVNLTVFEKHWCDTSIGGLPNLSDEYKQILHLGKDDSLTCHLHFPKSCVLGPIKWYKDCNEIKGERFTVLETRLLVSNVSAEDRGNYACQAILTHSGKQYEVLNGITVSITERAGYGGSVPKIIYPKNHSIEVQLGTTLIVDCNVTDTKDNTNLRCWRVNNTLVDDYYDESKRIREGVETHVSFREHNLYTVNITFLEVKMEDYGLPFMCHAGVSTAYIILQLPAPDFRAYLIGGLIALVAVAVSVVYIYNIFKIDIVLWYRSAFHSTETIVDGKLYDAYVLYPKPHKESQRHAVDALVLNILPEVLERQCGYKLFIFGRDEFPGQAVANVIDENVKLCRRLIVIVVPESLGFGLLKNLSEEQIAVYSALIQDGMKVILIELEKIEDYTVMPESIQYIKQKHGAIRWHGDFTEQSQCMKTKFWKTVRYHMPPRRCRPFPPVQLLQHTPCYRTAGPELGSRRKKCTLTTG
Kind of assay: cell-based or functional assay.

Assay [2] deals with T1, human IL-36R. Kind of assay: flow cytometry on CHO-K1-huIL-36R-5E10/2F10 cells. Background: Flow cytometry measures light scatter and fluorescence of single cells or particles in a stream.
Assay [3] deals with T2, IL17A (analyte of Table 17) (Homo sapiens (Human), UniProt Q16552 24-155).
T2 sequence: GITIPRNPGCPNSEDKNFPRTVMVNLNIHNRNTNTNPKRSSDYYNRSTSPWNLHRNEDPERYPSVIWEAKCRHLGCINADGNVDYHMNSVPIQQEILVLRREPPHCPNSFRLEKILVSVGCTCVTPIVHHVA
The experiment in a line: SPR Biacore 8K, antibody captured on anti-human chip, antigen as analyte, 1:1 model.

Assay [4] has as its target T3, IL36R (analyte of Table 17) (Homo sapiens (Human), UniProt Q9HB29 20-335).
T3 sequence: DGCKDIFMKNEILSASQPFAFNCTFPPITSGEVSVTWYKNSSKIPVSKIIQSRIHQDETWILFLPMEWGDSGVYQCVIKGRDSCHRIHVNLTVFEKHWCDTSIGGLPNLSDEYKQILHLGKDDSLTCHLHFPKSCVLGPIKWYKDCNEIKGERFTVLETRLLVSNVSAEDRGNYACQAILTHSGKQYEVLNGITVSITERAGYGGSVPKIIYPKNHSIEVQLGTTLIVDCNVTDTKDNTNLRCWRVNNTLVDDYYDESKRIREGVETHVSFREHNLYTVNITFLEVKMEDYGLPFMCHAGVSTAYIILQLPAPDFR
Described as above.

The target of another assay is T4, Human IL-17A (human, UniProt Q16552 24-155).
T4 construct: also called IL-17A recombinant protein; IL-17A soluble recombinant protein
T4 sequence (looked up): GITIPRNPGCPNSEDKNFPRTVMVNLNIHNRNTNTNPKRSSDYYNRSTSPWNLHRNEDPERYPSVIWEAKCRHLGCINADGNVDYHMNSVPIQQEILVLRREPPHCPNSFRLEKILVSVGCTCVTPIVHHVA
The experiment in a line: ELISA, human IL-17A coated at 1 µg/ml.

B1: IL17A-IL36R bispecific antibody 700005 (bispecific antibody)
heavy (part 1 of 2): QVQLVQSGSELKKPGASVKVSCKASEYIFTNYGMNWVKQAPGQGFEWMGWIDTNTGEPTYAQGFTGRFVFSLDTSVSTAYLQISSLKAEDTATYYCANYGWGYFDYWGQGTTVTVSS
heavy (part 2 of 2): GGGGSGGGGSGGGGSGGGGSQIVLTQSPGTLSLSPGERATLSCRASSSVSSSYLHWYQQKPGQAPRLWIYSTSSRATGIPDRFSGSGSGTDFTLTISRLEPEDFATYYCQQFQSSPLTFGQGTKLEIKGGGGSGGGGSGGGGSQVQLVQSGAEVKKPGASVKVSCKASGYTFTSSWMHWAKQAPGQGLEWIGEIHPNSAKTNYNQKFQGRVTMTRDTSISTAYMELSRLRSDDTAVYYCARVDYGKPWFAYWGQGTLVTVSS
light: DVVMTQTPPSLPVNPGEPASISCRSSQSLVHSNGYTYLHWYLQKPGQSPQLLIYKVSNHLSGVPDRFSGSGSGTDFTLKISWVEAEDVGVYFCSQSTHVPYTFGGGTKLEIKRTVAAPSVFIFPPSDEQLKSGTASVVCLLNNFYPREAKVQWKVDNALQSGNSQESVTEQDSKDSTYSLSSTLTLSKADYEKHKVYACEVTHQGLSSPVTKSFNRGEC
notes: also called 70005; not shown: heavy constant region CH1-CH2-CH3
On to B1, for which the “EC50 of inhibition of IL-6 content, NCI/ADR-RES cells stimulated with IL-36β” value in the assay with human IL-36R [1] amounted to 0.45 nM. For the same molecule, a half-maximal response with human IL-36R [2] (EC50) required 0.747 nM. In assay [3], binding was characterised by a dissociation constant (Kd) of 0.0061 nM, the koff (commonly a measure of how fast the partners let go of each other) amounted to 4.13e-05 s⁻¹ and the kon (commonly the second-order rate constant of association) stood at 6.77e+06 M⁻¹ s⁻¹. In assay [4], the dissociation constant (Kd) – broadly, the concentration at which binding is half-saturated – is 0.35 nM; the koff is 7.2e-05 s⁻¹; the kon was determined as 205000 M⁻¹ s⁻¹. Moreover, the response with Human IL-17A was half-maximal at 0.18 nM (EC50).
